Measured values from patent US20180155451A1 (published 2018).

T1: FcγRIIb extracellular domain with C-terminal His tag (human, UniProt P31994 43-217)
T1 construct: extracellular domain; also called FcgRIIb; 2b; not shown: His tag at the C terminus
T1 sequence (looked up): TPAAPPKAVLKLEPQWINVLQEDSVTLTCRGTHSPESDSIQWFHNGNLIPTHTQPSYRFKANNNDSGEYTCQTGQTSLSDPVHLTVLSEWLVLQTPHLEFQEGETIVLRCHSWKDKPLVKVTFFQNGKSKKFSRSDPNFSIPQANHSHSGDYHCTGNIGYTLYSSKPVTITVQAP

T2: FcγRIIb (human, UniProt P31994 43-217)
T2 construct: extracellular domain; also called FcgRIIb; 2b
T2 sequence (looked up): T1 sequence (looked up)

T3: FcγRIIa R (human, UniProt P12318 34-217)
T3 construct: extracellular domain; also called FcgRIIa R type; 2aR
T3 sequence (looked up): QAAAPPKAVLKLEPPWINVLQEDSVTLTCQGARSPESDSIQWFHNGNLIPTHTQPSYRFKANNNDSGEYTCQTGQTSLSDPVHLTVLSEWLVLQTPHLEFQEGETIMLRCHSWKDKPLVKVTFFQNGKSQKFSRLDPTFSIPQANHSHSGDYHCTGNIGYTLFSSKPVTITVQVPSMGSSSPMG

B1: GpH7-A5/GpH7-B3 variant G236_09D/GpL16-k0 (heterodimerized antibody, He Ab) (antibody, human IgG1, kappa)
heavy 1: not shown
heavy 2: not shown
light: DIVMTQSPLSLPVTPGEPASISCQASESLVHSNRNTYLHWYLQKPGQSPQLLIYKVSNRFSGVPDRFSGSGSGTDFTLKISRVEAEDVGVYYCSQNTHVPPTFGQGTKVEIERTVAAPSVFIFPPSDEQLKSGTASVVCLLNNFYPREAKVQWKVDNALQSGNSQESVTEQDSKDSTYSLSSTLTLSKADYEKHKVYACEVTHQGLSSPVTKSFNRGEC
notes: Anti-glypican-3 IgG1; the alteration is in the GpH7-B3 chain only; also called G236D
B2: GpH7-A5/GpH7-B3 variant G237_02A/GpL16-k0 (heterodimerized antibody, He Ab) (antibody, human IgG1, kappa)
heavy 1: not shown
heavy 2: not shown
light: B1 light
notes: Anti-glypican-3 IgG1; the alteration is in the GpH7-B3 chain only; also called G237A
B3: GpH7-A5/GpH7-B3 variant P238_04F/GpL16-k0 (heterodimerized antibody, He Ab) (antibody, human IgG1, kappa)
heavy 1: not shown
heavy 2: not shown
light: B1 light
notes: Anti-glypican-3 IgG1; the alteration is in the GpH7-B3 chain only; also called P238F
B4: GpH7-A5/GpH7-B3 variant P238_12R/GpL16-k0 (heterodimerized antibody, He Ab) (antibody, human IgG1, kappa)
heavy 1: not shown
heavy 2: not shown
light: B1 light
notes: Anti-glypican-3 IgG1; the alteration is in the GpH7-B3 chain only; also called P238R
B5: GpH7-A5/GpH7-B3 variant P238_01G/GpL16-k0 (heterodimerized antibody, He Ab) (antibody, human IgG1, kappa)
heavy 1: not shown
heavy 2: not shown
light: B1 light
notes: Anti-glypican-3 IgG1; the alteration is in the GpH7-B3 chain only; also called P238G
B6: GpH7-A5/GpH7-B3 variant G237_06M/GpL16-k0 (heterodimerized antibody, He Ab) (antibody, human IgG1, kappa)
heavy 1: not shown
heavy 2: not shown
light: B1 light
notes: Anti-glypican-3 IgG1; the alteration is in the GpH7-B3 chain only; also called G237M
B7: GpH7-A5/GpH7-B3 variant G237_08L/GpL16-k0 (heterodimerized antibody, He Ab) (antibody, human IgG1, kappa)
heavy 1: not shown
heavy 2: not shown
light: B1 light
notes: Anti-glypican-3 IgG1; the alteration is in the GpH7-B3 chain only; also called G237L
B8: GpH7-A5/GpH7-B3 variant L235_09D/GpL16-k0 (heterodimerized antibody, He Ab) (antibody, human IgG1, kappa)
heavy 1: not shown
heavy 2: not shown
light: B1 light
notes: Anti-glypican-3 IgG1; the alteration is in the GpH7-B3 chain only; also called L235D
B9: GpH7-A5/GpH7-B3 variant L235_15Y/GpL16-k0 (heterodimerized antibody, He Ab) (antibody, human IgG1, kappa)
heavy 1: not shown
heavy 2: not shown
light: B1 light
notes: Anti-glypican-3 IgG1; the alteration is in the GpH7-B3 chain only; also called L235Y
B10: GpH7-A5/GpH7-B3 variant G236_18N/GpL16-k0 (heterodimerized antibody, He Ab) (antibody, human IgG1, kappa)
heavy 1: not shown
heavy 2: not shown
light: B1 light
notes: Anti-glypican-3 IgG1; the alteration is in the GpH7-B3 chain only; also called G236N
B11: GpH7-A5/GpH7-B3 variant P238_11K/GpL16-k0 (heterodimerized antibody, He Ab) (antibody, human IgG1, kappa)
heavy 1: not shown
heavy 2: not shown
light: B1 light
notes: Anti-glypican-3 IgG1; the alteration is in the GpH7-B3 chain only; also called P238K
B12: GpH7-A5/GpH7-B3 variant L235_20W/GpL16-k0 (heterodimerized antibody, He Ab) (antibody, human IgG1, kappa)
heavy 1: not shown
heavy 2: not shown
light: B1 light
notes: Anti-glypican-3 IgG1; the alteration is in the GpH7-B3 chain only; also called L235W
B13: GpH7-A5/GpH7-B3 variant Y296_05P/GpL16-k0 (antibody, human IgG1, kappa)
heavy 1: not shown
heavy 2: not shown
light: B1 light
notes: heterodimerized antibody, mutation in the GpH7-B3 chain only; also called He Ab
B14: GpH7-A5/GpH7-B3 variant G237_04F/GpL16-k0 (heterodimerized antibody, He Ab) (antibody, human IgG1, kappa)
heavy 1: not shown
heavy 2: not shown
light: B1 light
notes: Anti-glypican-3 IgG1; the alteration is in the GpH7-B3 chain only; also called G237F
B15: GpH7-A5/GpH7-B3 variant G237_15Y/GpL16-k0 (heterodimerized antibody, He Ab) (antibody, human IgG1, kappa)
heavy 1: not shown
heavy 2: not shown
light: B1 light
notes: Anti-glypican-3 IgG1; the alteration is in the GpH7-B3 chain only; also called G237Y
B16: GpH7-A5/GpH7-B3 variant G236_13S/GpL16-k0 (heterodimerized antibody, He Ab) (antibody, human IgG1, kappa)
heavy 1: not shown
heavy 2: not shown
light: B1 light
notes: Anti-glypican-3 IgG1; the alteration is in the GpH7-B3 chain only; also called G236S
B17: GpH7-A5/GpH7-B3 variant L235_16H/GpL16-k0 (heterodimerized antibody, He Ab) (antibody, human IgG1, kappa)
heavy 1: not shown
heavy 2: not shown
light: B1 light
notes: Anti-glypican-3 IgG1; the alteration is in the GpH7-B3 chain only; also called L235H
B18: GpH7-A5/GpH7-B3 variant G237_16H/GpL16-k0 (heterodimerized antibody, He Ab) (antibody, human IgG1, kappa)
heavy 1: not shown
heavy 2: not shown
light: B1 light
notes: Anti-glypican-3 IgG1; the alteration is in the GpH7-B3 chain only; also called G237H
B19: GpH7-A5/GpH7-B3 variant P238_09D/GpL16-k0 (heterodimerized antibody, He Ab) (antibody, human IgG1, kappa)
heavy 1: not shown
heavy 2: not shown
light: B1 light
notes: Anti-glypican-3 IgG1; the alteration is in the GpH7-B3 chain only; also called P238D
B20: GpH7-A5/GpH7-B3 variant G237_09D/GpL16-k0 (heterodimerized antibody, He Ab) (antibody, human IgG1, kappa)
heavy 1: not shown
heavy 2: not shown
light: B1 light
notes: Anti-glypican-3 IgG1; the alteration is in the GpH7-B3 chain only; also called G237D

What was measured:
[1] = target: T1, FcγRIIb extracellular domain with …; assay: SPR (Biacore), captured antibody, FcγR as analyte; relative to GpH7-A5/GpH7-B3/GpL16-k0 = 100
Experimental: (§1) Analysis of interaction between objective antibody and the FcγR was carried out using Biacore T100 (GE Healthcare). HBS-EP+ (GE Healthcare) was used as the running buffer, and the measurement temperature was set to 25° C. Chips produced by immobilizing the antigen peptide by the amine coupling method to a Series S Sencor Chip CM5 (GE Healthcare), or alternatively, chips produced by allowing preliminarily biotinylated antigen peptides to interact with and immobilize onto a Series S Sensor Chip SA (certified) (GE Healthcare) were used. Antibodies of interest were captured onto an antigen peptide-immobilized chip, and allowed to interact to each FcγR diluted with running buffer. To regenerate and repeatedly use the chip, the antibodies captured on the chip were washed off by reacting 10 mM glycine-HCl, pH 1.5.
(§2) The FcγR-binding activity of each antibody was assessed primarily using as an indicator the FcγR-binding activity and dissociation constant for FcγR.

[2] = target: T4, FcγRIIIa extracellular domain with C-terminal His tag (human, UniProt P08637 17-208); assay: as above
T4 construct: extracellular domain; also called FcgRIIIa; 3a; not shown: His tag at the C terminus
T4 sequence (P08637 17-208): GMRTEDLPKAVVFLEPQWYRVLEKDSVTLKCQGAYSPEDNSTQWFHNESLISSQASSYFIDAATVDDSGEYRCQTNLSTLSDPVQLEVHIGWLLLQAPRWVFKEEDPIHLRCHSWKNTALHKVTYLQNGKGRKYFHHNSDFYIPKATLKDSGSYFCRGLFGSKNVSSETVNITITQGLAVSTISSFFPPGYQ
Experimental: as §1, §2

FcγRIIb = target: T2, FcγRIIb; assay: SPR (Biacore), antibody captured, FcγR as analyte; relative binding
FcγRIIa R [3] = target: T3, FcγRIIa R; assay: as above
FcγRIIa R [4] = target: T3, FcγRIIa R; assay: SPR; He/Con_2aR divided by He/Con_2b (FcγRIIb as reference)

Row | Binder | He/Con_2b (IIb binding) [1] | He/Con_3a (IIIa binding) [2] | He/Con_2b (IIb binding) (FcγRIIb) | He/Con_2aR (IIaR binding) (FcγRIIa R [3]) | IIaR/IIb (He_2aR/2b) (FcγRIIa R [4]) [ratio]
1 | B1 | 167 % of HeCon Ab | 71.2 % of HeCon Ab | – | – | –
2 | B2 | 124 % of HeCon Ab | 48.8 % of HeCon Ab | – | – | –
3 | B3 | 312 % of HeCon Ab | 46.7 % of HeCon Ab | – | – | –
4 | B4 | 51.4 % of HeCon Ab | 12.2 % of HeCon Ab | – | – | –
5 | B5 | 56 % of HeCon Ab | 33 % of HeCon Ab | – | – | –
6 | B6 | 130 % of HeCon Ab | 31.9 % of HeCon Ab | – | – | –
7 | B7 | 148 % of HeCon Ab | 24.9 % of HeCon Ab | – | – | –
8 | B8 | 106 % of HeCon Ab | 91.6 % of HeCon Ab | – | – | –
9 | B9 | 149 % of HeCon Ab | 80.6 % of HeCon Ab | – | – | –
10 | B10 | 96.4 % of HeCon Ab | 37.8 % of HeCon Ab | – | – | –
11 | B11 | 18.1 % of HeCon Ab | 10.4 % of HeCon Ab | – | – | –
12 | B12 | 147 % of HeCon Ab | 76.4 % of HeCon Ab | – | – | –
13 | B13 | – | – | 36.6 % of GpH7-A5/GpH7-B3/GpL16-k0 (=100) | 47.7 % of GpH7-A5/GpH7-B3/GpL16-k0 (=100) | 1.3
14 | B14 | 149 % of HeCon Ab | 25.3 % of HeCon Ab | – | – | –
15 | B15 | 152 % of HeCon Ab | 22.1 % of HeCon Ab | – | – | –
16 | B16 | 96.7 % of HeCon Ab | 64.8 % of HeCon Ab | – | – | –
17 | B17 | 76.9 % of HeCon Ab | 59.1 % of HeCon Ab | – | – | –
18 | B18 | 55.2 % of HeCon Ab | 17.2 % of HeCon Ab | – | – | –
19 | B19 | 221 % of HeCon Ab | 106 % of HeCon Ab | – | – | –
20 | B20 | 223 % of HeCon Ab | 17.7 % of HeCon Ab | – | – | –
